One may read the Kd as the concentration at which binding is half-saturated. Read a low Kd as a tighter complex. As usually defined, the koff is the first-order rate constant of dissociation. As usually defined, the kon is a measure of how fast the partners come together.

Like-named read-outs stand apart in the source and are kept apart here.

B1: 12777.13362 (antibody, human IgG1, lambda, L234A L235A)
heavy: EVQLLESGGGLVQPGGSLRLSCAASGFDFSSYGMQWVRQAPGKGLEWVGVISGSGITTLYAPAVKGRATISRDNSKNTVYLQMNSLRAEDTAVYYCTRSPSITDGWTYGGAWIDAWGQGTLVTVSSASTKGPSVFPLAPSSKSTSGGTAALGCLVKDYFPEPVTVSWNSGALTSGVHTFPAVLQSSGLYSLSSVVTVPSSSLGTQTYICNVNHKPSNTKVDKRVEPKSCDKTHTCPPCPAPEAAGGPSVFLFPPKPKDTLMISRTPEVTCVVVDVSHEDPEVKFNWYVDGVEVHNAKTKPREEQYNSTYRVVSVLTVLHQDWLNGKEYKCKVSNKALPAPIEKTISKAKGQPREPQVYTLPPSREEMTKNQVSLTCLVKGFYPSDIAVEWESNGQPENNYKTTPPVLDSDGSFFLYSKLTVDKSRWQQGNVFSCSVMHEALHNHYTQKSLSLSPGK
light: ELTQDPAVSVALGQTVRITCSGGDGSYGWFQQKPGQAPVTVIYDNDNRPSDIPDRFSGSSSGNTASLTITGAQAEDEADYYCGNADLSGGIFGSGTKVTVLGQPKANPTVTLFPPSSEELQANKATLVCLISDFYPGAVTVAWKADGSPVKAGVETTKPSKQSNNKYAASSYLSLTPEQWKSHRSYSCQVTHEGSTVEKTVAPTECS
notes: same as 12777.15382 but without the N-terminal SY of the light chain
B2: 12865.17150 (antibody, human IgG1, lambda, L234A L235A, V domains shown)
VH: EVQLLESGGGLVQPGGSLRLSCAASGFDFSDHGMQWVRQAPGKGLEYVGVIDTTGRYTYYAPAVKGRATISRDNSKNTLYLQMNSLRAEDTAVYYCAKTTCVGGYLCNTVGSIDAWGQGTLVTVSS
VL: SYELTQDPAVSVALGQTVRITCSGGGSSSYYGWYQQKPGQAPVTVIYDDTNRPSGIPDRFSGSSSGNTASLTITGAQAEDEADYYCGGYEGSSHAGIFGSGTKVTVLG
B3: 12819.15384 (antibody, human IgG1, lambda, L234A L235A)
heavy: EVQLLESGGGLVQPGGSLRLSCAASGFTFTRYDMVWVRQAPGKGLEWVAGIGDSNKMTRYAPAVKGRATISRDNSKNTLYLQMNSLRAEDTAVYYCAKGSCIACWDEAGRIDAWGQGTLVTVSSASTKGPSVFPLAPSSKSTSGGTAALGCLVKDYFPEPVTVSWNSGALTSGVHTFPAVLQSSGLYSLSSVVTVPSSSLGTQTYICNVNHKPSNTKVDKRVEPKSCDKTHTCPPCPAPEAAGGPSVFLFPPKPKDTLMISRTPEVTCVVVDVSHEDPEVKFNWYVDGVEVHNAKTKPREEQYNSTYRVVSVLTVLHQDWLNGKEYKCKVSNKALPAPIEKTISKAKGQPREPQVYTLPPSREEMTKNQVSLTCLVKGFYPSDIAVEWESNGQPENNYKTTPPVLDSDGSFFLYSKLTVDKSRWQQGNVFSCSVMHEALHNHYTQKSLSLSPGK
light: SYELTQDPAVSVALGQTVRITCSGGGSYDGSSYYGWYQQKPGQAPVTVIYNNNNRPSDIPDRFSGSSSGNTASLTITGAQAEDEADYYCGSYDRPETNSDYVGMFGSGTKVTVLGQPKANPTVTLFPPSSEELQANKATLVCLISDFYPGAVTVAWKADGSPVKAGVETTKPSKQSNNKYAASSYLSLTPEQWKSHRSYSCQVTHEGSTVEKTVAPTECS
notes: humanized, IgG1 LALA, lambda
B4: cyno PD1 (receptor)
receptor: LESPDRPWNAPTFSPALLLVTEGDNATFTCSFSNASESFVLNWYRMSPSNQTDKLAAFPEDRSQPGQDCRFRVTRLPNGRDFHMSVVRARRNDSGTYLCGAISLAPKAQIKESLRAELRVTERRAEVPTAHPSPSPRPAGQFQALVVGVVGGLLGSLVLLVWVLAVICSRAAQGTIEARRTGQPLKEDPSAVPVFSVDYGELDFQWREKTPEPPAPCVPEQTEYATIVFPSGLGTSSPARRGSADGPRSPRPLRPEDGHCSWPL
notes: also called cynomolgus PD-1 expressed on CFSE-stained CHO-S cells

Assay [1] concerns the target T1, human PD-1 Fc fusion protein (Sino Biological) (human, UniProt Q15116 25-167, limits assumed).
T1 construct: bought; not shown: Fc of the commercial fusion protein
Put plainly: BLI, PD-1-Fc saturated with 10 ug/ml antibody, then PD-L2-Fc. (In general: BLI is a label-free optical method that tracks binding on a fibre tip over time.)

The assay “cyno PD1” has as its target B4. In words: flow cytometry, PD-1-transfected CHO-S cells; mAb 10 ug/ml, then R-PE PD-L1-Fc as blocked ligand. Background: In flow cytometry, cells or beads pass a laser one at a time.
The target in assay [2] is T2, human PD-1 expressed on CHO-S cells (human, UniProt Q15116 25-288).
T2 construct: also called PD-1-expressing cells
The assay is described as above.

Assay [3] concerns the target T1, human PD-1 Fc fusion protein (Sino …). Put plainly: BLI, PD-1-Fc saturated with 10 ug/ml antibody, then PD-L1-Fc.
Assay [4] has as its target T2, human PD-1 expressed on CHO-S cells. In words: flow cytometry competition, 10 ug/ml antibody vs R-PE PD-L1-Fc on PD-1 CHO-S cells.
In assay [5] the target is T3, His-tagged mouse PD-1 ECD (mouse (Mus musculus), UniProt Q02242 25-169).
T3 construct: bought from Sino Biologicals; not shown: His tag
T3 sequence: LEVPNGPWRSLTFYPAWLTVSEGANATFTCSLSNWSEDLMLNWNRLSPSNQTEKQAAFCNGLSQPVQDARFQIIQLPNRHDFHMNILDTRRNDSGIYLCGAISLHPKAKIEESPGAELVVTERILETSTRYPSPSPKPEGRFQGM
In words: SPR, IgG captured, monovalent PD-1 ECD analyte.

For assay [6], the target named is T4, His-tagged human PD-1 ECD (human, UniProt Q15116 25-170).
T4 construct: bought from Acro Biosystems; not shown: His tag
In words: SPR, IgG captured, monovalent PD-1 ECD analyte. (In general: In SPR one partner is held on a chip, and binding of the other changes the refractive index at the surface.)

The target of assay [7] is T3, His-tagged mouse PD-1 ECD. Put plainly: SPR, IgG captured, monovalent PD-1 ECD analyte. This is another data set of the same source.
Assay [8] concerns the target T5, His-tagged cynomolgus PD-1 ECD (cynomolgus (Macaca fascicularis), UniProt Q15116 25-170 (human entry)).
T5 construct: bought from Acro Biosystems; not shown: His tag
T5 chain: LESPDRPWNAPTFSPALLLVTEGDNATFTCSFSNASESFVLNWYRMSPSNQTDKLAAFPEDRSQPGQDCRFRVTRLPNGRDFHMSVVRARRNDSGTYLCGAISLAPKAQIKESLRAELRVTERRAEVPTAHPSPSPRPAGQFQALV
Put plainly: SPR, IgG captured, monovalent PD-1 ECD analyte.

The target of assay [9] is T4, His-tagged human PD-1 ECD. In words: SPR, IgG captured, monovalent PD-1 ECD analyte. The source holds these as a separate data set.
The target of assay [10] is T6, R-PE labeled human PD-L1-Fc chimera protein (human, UniProt Q9NZQ7 19-239, conjugated to R-phycoerythrin (R-PE)).
T6 construct: bought from R&D Systems; not shown: Fc of the commercial chimera
In words: flow cytometry, PD-1-transfected CHO-S cells; R-PE PD-L1-Fc 16.4 nM in the presence of the negative control ramucirumab 10 ug/ml.
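Throughout, for % of all cells in Q3 of panel PD-L1 binding (PD-L1-, CFSE+ cyno PD1 cells): human PD-1 CHO-S cells mixed with CFSE-labelled cyno PD-1 CHO-S cells, antibody binding read with APC anti-human IgG light chain detection.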
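Throughout, for % of cyno PD1-gated cells in Q1 (mAb+, PD-L1-): human PD-1 CHO-S cells mixed with CFSE-labelled cyno PD-1 CHO-S cells, antibody binding read with APC anti-human IgG light chain detection.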
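Throughout, for % of cyno PD1-gated cells in Q2 (mAb+, PD-L1+): human PD-1 CHO-S cells mixed with CFSE-labelled cyno PD-1 CHO-S cells, antibody binding read with APC anti-human IgG light chain detection.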
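Throughout, for % of cyno PD1-gated cells in Q3 (mAb-, PD-L1+): human PD-1 CHO-S cells mixed with CFSE-labelled cyno PD-1 CHO-S cells, antibody binding read with APC anti-human IgG light chain detection.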

T2 sequence (Q15116 25-288 limits assumed): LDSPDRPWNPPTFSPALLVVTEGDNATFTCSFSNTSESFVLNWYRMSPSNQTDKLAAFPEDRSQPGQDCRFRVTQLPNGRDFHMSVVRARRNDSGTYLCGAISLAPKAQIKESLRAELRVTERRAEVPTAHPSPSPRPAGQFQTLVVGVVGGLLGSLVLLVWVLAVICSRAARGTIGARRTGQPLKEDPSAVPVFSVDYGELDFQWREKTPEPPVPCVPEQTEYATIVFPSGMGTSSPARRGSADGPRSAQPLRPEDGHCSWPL
T4 sequence (Q15116 25-170): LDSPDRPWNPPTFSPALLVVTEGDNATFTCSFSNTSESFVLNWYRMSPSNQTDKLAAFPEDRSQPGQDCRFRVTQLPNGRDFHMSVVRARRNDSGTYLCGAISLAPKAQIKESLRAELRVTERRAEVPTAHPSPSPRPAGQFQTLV
T1 sequence (Q15116 25-167 limits assumed): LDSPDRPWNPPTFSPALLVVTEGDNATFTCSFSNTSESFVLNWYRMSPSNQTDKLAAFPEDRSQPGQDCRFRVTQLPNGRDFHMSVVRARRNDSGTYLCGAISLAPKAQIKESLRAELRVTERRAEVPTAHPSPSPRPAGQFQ
T6 sequence (Q9NZQ7 19-239, change not shown): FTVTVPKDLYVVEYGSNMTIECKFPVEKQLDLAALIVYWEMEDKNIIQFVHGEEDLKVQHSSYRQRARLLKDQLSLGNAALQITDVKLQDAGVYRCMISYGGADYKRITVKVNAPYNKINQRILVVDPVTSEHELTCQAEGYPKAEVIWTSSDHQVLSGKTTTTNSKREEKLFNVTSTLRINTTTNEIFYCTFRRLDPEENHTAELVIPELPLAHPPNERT

As for B1, the “% Blocking” value in assay [1] stood at 90%. Moreover, in the assay with cyno PD1, the “% of all cells in Q3 of panel PD-L1 binding (PD-L1-, CFSE+ cyno PD1 cells)” value came to 50%; the “% of cyno PD1-gated cells in Q1 (mAb+, PD-L1-)” value worked out at 51.8%; the “% of cyno PD1-gated cells in Q2 (mAb+, PD-L1+)” value amounted to 11.4%; the “% of cyno PD1-gated cells in Q3 (mAb-, PD-L1+)” value is 0.74%. In the assay with cyno PD1, the “% of cyno PD1-gated cells in Q4 (mAb-, PD-L1-)” value is 36.1%. Moreover, in assay [2], the “% of all cells in Q1 of panel PD-L1 binding (PD-L1+, CFSE- human PD1 cells)” value is 2.56%; the “% of all cells in Q4 of panel PD-L1 binding (PD-L1-, CFSE- human PD1 cells)” value stood at 45.3%; the “% of human PD1-gated cells in Q1 (mAb+, PD-L1-)” value turned out to be 59.6%; the “% of human PD1-gated cells in Q2 (mAb+, PD-L1+)” value stood at 14.3%. Besides, in assay [2], the “% of human PD1-gated cells in Q3 (mAb-, PD-L1+)” value turned out to be 0.28% and the “% of human PD1-gated cells in Q4 (mAb-, PD-L1-)” value was found to be 25.9%. Also, in assay [3], the “% Blocking” value amounted to 93%. For the same molecule, in assay [4], the “% PD-L1 binding inhibition” value is 69%.
Consider B2, for which the binding result in assay [5] is “no binding”.
Regarding B3, the Kd in assay [6] worked out at 0.028 nM; in assay [7], 0.809 nM; in assay [8], 0.005 nM; in assay [9] it was 0.02 nM. The koff came out at 8.85e-06 s⁻¹ in [6], 3.04e-05 s⁻¹ in assay [7], 4.5e-06 s⁻¹ in assay [8] and 2.3e-05 s⁻¹ in assay [9]. Also, the kon in [6] worked out at 326000 M⁻¹ s⁻¹; in [7], 37100 M⁻¹ s⁻¹; in assay [8] it was 970000 M⁻¹ s⁻¹; in assay [9], 1.1e+06 M⁻¹ s⁻¹.
Turning to B4, the binding result in assay [10] is on record as “binds”.

These data come from patent US20210284734A1 (SYMPHOGEN A S, published 2021).
